The Human Domainome abundance scans (Beltran et al. 2025)

B1: Histone-lysine N-methyltransferase SETD2, residues 2382 to 2430; numbered along this chain, Q9BYW2 (parent)
chain: SPPKPKTIVLPPNWKTARDPEGKIYYYHVITRQTQWDPPTWESPGDDAS
B2: Unconventional myosin-Ie, residues 1051 to 1108; numbered along this chain, Q12965 (parent)
chain: PQVPQCKALYAYDAQDTDELSFNANDIIDIIKEDPSGWWTGRLRGKQGLFPNNYVTKI

Variants of: B1
Assay: abundance fitness (aPCA) (normalised: wild type 0, dead -1); higher = more abundant; growth selection in yeast, the domain comes from the species named
Conditions: Homo sapiens

Abundance fitness of substitutions, site by site:
K4: H -0.221; F -0.41; C -0.564; I -0.154; A -0.836; N -0.144; G -0.97; D -0.927
R32: C -0.357; M -0.15; Q -0.022; H -0.131; T -1.01
R18: Q -0.482; L -0.404; Y -0.105
D37: E 0.049; P -0.48; K -0.061; A -0.049; W -0.255
W14: V -0.882; H -0.615; A -0.865; M -0.721
T16: G -0.203; D -0.47; M 0.218; L 0.049; N -0.723
D47: P -0.2; H -0.028; Y -0.023; K -0.16; L -0.107; A -0.051
A17: F -0.543; K -0.131; D -0.092; W -0.77; R 0.023; E -0.301; V -0.242; L -0.212; H -0.728; Q -0.845
L10: T -0.431; K -0.553; Q -0.529; S -0.684; Y -0.249; C -0.191; A -0.759; I -0.026; N -0.46
S49: A -0.418; I -0.088; T -0.013; R -0.158
K23: Y -0.316; S -0.279; C -0.402; H -0.686; W -0.789; F -0.619; A -0.288
Q35: F -0.683; I -0.505; N -0.875; W -0.722; M -0.074; H -0.083; S -0.062
P44: D -0.108; Q -0.067; A -0.115; E -0.096; G -0.128; C -0.448; V -0.263
K6: Y -0.227; T -0.148; P -0.35; A -0.032; W -0.393
I24: V -0.406; H -0.549
I30: Y -0.244; M -0.19; C -0.498; K -0.144; S -0.344
I8: D -0.164; A -0.1; T 0.021; P -0.282; Y -0.108
G45: S 0.025; R 0.035; D -0.061; F 0.019; K 0.006; E 0.02
S43: R -0.11; C -0.471; Q 0.091; G -0.15
P5: Q 0.007; A 0.102; I 0.077; G 0.118; K 0.159
T31: S -0.131; K -0.651; P -0.785; H -0.761; Y -0.831
E21: V -0.275; R -0.043; G -0.003; Q -0.217; I -0.316
W36: K -0.006; Y 0.203; M -0.382; R 0.139; T -0.05
P11: M -0.374; F -0.43; T -0.682; A -0.388; N -0.371; W -0.811
N13: G -0.191
S1: N 0.442; C 0.007
T40: Q 0.277; E 0.12; D -0.342; H 0.155; L -0.071; A 0.15
P20: T 0.006; H -0.157; R 0.017; G -0.03; K 0.122; V -0.31
D46: R -0.286; G -0.119; K -0.166; S -0.167; I -0.164; V -0.064; M -0.297; Q -0.358
A48: D 0.1; I 0.095; H -0.081; M 0.151; Q -0.153; C 0.085
P12: R 0.009; T 0.092; K 0.048; C -0.844
W41: E 0.166; C 0.04; D 0.06; M 0.16
P3: K 0.325; D 0.371; C -0.508; M 0.369; F 0.197; E 0.408; T 0.155
P2: M 0.026; A 0.131; S 0.237; Y 0.539; N 0.461; V -0.065
V29: A 0.011; T 0.145; Y -0.258; H -0.208
G22: H -0.484; Q -0.841
Y25: R -0.628; M -0.56; H -0.419; I -0.38; F -0.227; W -0.907
P38: M -0.043; H -0.039; T -0.398; R -0.251; K -0.121; I -0.111; F -0.143
Y26: W -0.498; I -0.782; D -0.553; S -0.786; K -0.655
T7: L -0.214; N 0.127; E -0.045; C -0.062; W -0.462; P -0.375; R 0.094
P39: T -0.98; S -0.719
T34: W -0.18; N -0.493; D -0.774; M 0.188
Y27: D -0.446; T -0.185; R -0.265
E42: R -0.184; L -0.412; M -0.457; W -0.172; P 0.087
D19: A -0.537; L -0.407; C -0.725
V9: M 0.228; S -0.093; E -0.255
Q33: F -0.906; E 0.099; A -0.149; T -0.13; G -0.798

Variants of: B2
Assay: as above
Conditions: Homo sapiens

Abundance fitness of substitutions, site by site:
V3: I -0.145
K7: G -0.943; S -0.167; Y -0.074; Q -0.287; L -0.106; F -0.267; T -0.049; V -0.057; R -0.114; N -0.647; I 0.004; A -0.137; H -0.122; M -0.092; W -0.26; D -1.02; E -0.264; P -0.945; C -0.028
P1: Q 0.05; W -0.237; K 0.169; V 0.027; E -0.144; G -0.198; C -0.374; L 0.072; D -0.164; A 0.03; H 0.305; T 0.057; R -0.362; S 0.006
A8: E -0.674; S -0.714; P -0.732; F -0.619; C -0.196; K -0.902; M -0.817; G -0.748; R -0.887; I -1; N -0.853; T -0.544
Q5: N -0.062; I -0.072; K -0.075; R 0.023; E -0.467; L -0.135; S -0.065; W -0.281; F -0.158; Y -0.007; C -0.269; T 0.01; M -0.041; A -0.245; P -0.739; V -0.065
Q2: G -0.102; T -0.155; L -0.106; I -0.176; A -0.091; H -0.208; W -0.12; D 0.01; S -0.223; V -0.173; F -0.597; E -0.193; Y -0.373; R -0.317; M 0.153; C -0.193; P -0.062; N 0.068; K -0.09
C6: D -0.807; L -0.866; K -1; V -0.001; A 0.097; M -0.172; W -0.571; I -0.67; S -0.448; T -0.768; H -0.839; P -0.96; G 0; R -0.818
